This is an account of results in the nanobody polyreactivity screen of Harvey et al. (2022).

The data set is described as follows: yeast display, Sf9 membrane polyspecificity reagent, FACS + sequencing; frameworks hold sequencing errors. Put shortly:
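Galactose-induced (36–48 hours) yeast carrying a synthetic nanobody display library were exposed to 10% biotinylated, detergent-solubilized Sf9 membrane reagent at 4 °C for 1 hour. FACS followed streptavidin microbead enrichment, using low and high (top ~1%) gates for expression (anti-HA) and reagent binding (streptavidin). Colony PCR, MiSeq 2 × 250 sequencing and CDR-length filtering followed. Labels for polyreactivity reflect the gate of origin.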
For “QVQLVESGGGLVQAGGSLRLSCAASGRTLKYYAMGWYRQAPGKERELVAAITWSGTRTFYADSVKGRFTISRDNAKNTVYLQMNSLKPEDTAVYYCARTYYGGAGYEYWGQVTQVTVSS”, the “polyreactivity (PSR sort gate)” value is recorded as “high polyreactivity”.

“QVQLVESGGGLVQAGGSLRLSCAASGRTSGFNTMGWYRQAPGKERELVAAISFSGGSTYYADSVKGRFTISRDNAKNTVYFQMNSLKPEDTAVSYCNALFRYLYRSGDYWRQGTQVTVSS”: the “polyreactivity (PSR sort gate)” value was “low polyreactivity”.

As for “QVQLVESGGGLVQAGGSLRLSCAASGRIFTGYAMGWYRQAPGKERELVAAISSRGGSTYYADSVKGRFTISRDNAKNTVYLQMNSLKPEDTAVYYCNAYQWRHRYTMYYWGQGTQVTVSS”, the “polyreactivity (PSR sort gate)” value is “high polyreactivity”.

Take “QVQLVETGGGLVQAGGSLRLSCAASGRTFARYAMGWYRQAPGTERELVAAISWGGTRTYYADSVKGRFTISRDNAKNTVYLQMNSLKPEDTAVYYCAATYLYRDQPKWGGFAYTYGLWGQGTQVTVSS”: the “polyreactivity (PSR sort gate)” value was “high polyreactivity”.

As for “QVQLVESGGGLVQAGGSLRLSCAASGYTFYANAMGWYRQAPGKEREFVASSTWSGGSTYYADSVKGRFTISRDNAKNTVYFQMNSLKPEDTAVYYCAADSWFKYDYWGQGTQVTVSS”, the “polyreactivity (PSR sort gate)” value is listed as “low polyreactivity”.

Regarding “QVQLVESGGGLVQAGGSLRLSCAASGRILIWYAMGWYRQAPGKERELVAAINWSGSSTSYADSVKGRFTISRDNAKNTVYLQMNSLKPEDTAVYYCAAGRLTTYTPGNRYYYWGQGTQVTVSS”, the “polyreactivity (PSR sort gate)” value was “high polyreactivity”.

“QVQLVESGGGLVQAGGSLRLSCAASGSIFDGNAMGWYRQAPGKERDLVAANTKNDGTTYYADSVKGRFTISRDNAKNTVYLQMNSLKQEDTAVYYCAAESVYQVYTYVSSGDYWGQGTQVTVSS”: the “polyreactivity (PSR sort gate)” value was “low polyreactivity”.

Regarding “QVQLVESGGGLVQAGGSLRLSCAASGSILQYYAMGWYRQTPGKERELVAAITSGGSTYYADSVKGRFTISRDNAKNTVYLQMNSLKPEDTAVYYCAKVYRRAQYDYCGQGTQVTVSS”, the “polyreactivity (PSR sort gate)” value was “low polyreactivity”.

“QLQLVESGGGLVQAGGSLRLSCAASGFTFRWNGMGWYRQAPGKERELVPSISSTGGSTYYADSVKGRFTISRDNAKNTVYLQMNSLKPEDTAVYYCNAVVTYHYSVTSVGSRFDYWGQGTQVTVSS”: the “polyreactivity (PSR sort gate)” value is recorded as “high polyreactivity”.

Take “PVQLVESGGGLVQAGGSLSLICAASGRIFYMYAMRCYRPAPAKERELVAAITWSGGSTTYADSVKGRFTISRDNAKNTVYLQMNSLKPEDTSVYYCNAEGWIFPSFSPMDYWGQGTQVTVSS”: the “polyreactivity (PSR sort gate)” value is listed as “low polyreactivity”.

As for “QVQLVESGGGLVQAGGSLRLSCAASGSTFQFYAMGWYRQAPGKERELVAAISVSGDRTYYADSVKARFTISRDNAKNTVYLQMNSLKPEDSAVYYCAARYGPFKRRFDYWGLGTQVTVSS”, the “polyreactivity (PSR sort gate)” value is on record as “high polyreactivity”.

For the sequence “QVQLVESGGGLVQAGGSLRLSCAASGSTFWIYAMGWYRQAPGKERELVAAITLRSGSTYYADSVKGRFTISRDNAKNTVYLQMNSLKPEDTSVYYCATDSWGVDRPNYNYWGQGTQVTVSS”, the “polyreactivity (PSR sort gate)” value was “low polyreactivity”.

For the sequence “QVQLVESGGGLVQAGGTLRLSCAASGIIIGSYAMGWYRQAPGKERELVAAITNGARTNYADSVKGRFTISRDNAKNTVYLQMNSLKPEDTAVYYCAADNYFDWYWLFFEYDYWGQGTQVTVSS”, the “polyreactivity (PSR sort gate)” value is “high polyreactivity”.

“QVQLVESGGGLVQAGGSLRLSCAASGSTFPSNAMGWYRQAPGKERELVAAISSGGRTYYADSVKGRFTISRDNAKNTVYLQMKSLKPEDTAVYYCAADTDRRSPFDYWGQGTQVTVSS”: the “polyreactivity (PSR sort gate)” value is on record as “high polyreactivity”.

Consider “QVQLVESGGGLVQAGGSLRLSCAASGSILQPNAMGWYRQAPGKERELVAAISWSGDNTYYADSVKGRFTISRDNAKNTVYLQMNSLKPEDTAVYYCATDADIYFQEYDYWGQGTQVTVSS”, for which the “polyreactivity (PSR sort gate)” value is “low polyreactivity”.

“QVQLVESGGGLVQAGGSLRLSCAASGGIFWYNAMGWYRQAPGKERELVAAITWNGGRTYYADSVKGRFTISRDNAKNTVYLQMNSLKPEDTAVYYCAARSPVKRQSRKQYYYWGQGTQVTVSS”: the “polyreactivity (PSR sort gate)” value is listed as “high polyreactivity”.

On to “QVQLVESGGGLVQAGGSLRLSCAASGFTFFYNAMGWYSQAPGKESELVASITVSTSGTDYADSVKGRFTISRDNAKNTVYLQMNSLKPEDTAVYYCATDLVFVYSDLQDTAYYWGQGTQVTVSS”, for which the “polyreactivity (PSR sort gate)” value is “low polyreactivity”.

In the case of “QVQLVESGGGLVQAGGSLRLSCAASGSIFASYAMGWYRQAPGKERELVAAITTSGGRTYYADSVKGRFTISRDNAKNTVYLQMNSLKPEDTAVYYCARRPRGGRYAYYSWGQGTQVTVSS”, the “polyreactivity (PSR sort gate)” value is recorded as “high polyreactivity”.

For the sequence “QVQLVESGGGLVQAGGSLRISCAASGFIFWIYAMGWYRQAPGKEREFVAVITYRGDTTYYADSVKGRFTISRDNAKNTVYLQMNSLKPEDTAVYYCAAYTVQKYGYWGQGTQVTVSS”, the “polyreactivity (PSR sort gate)” value is reported as “low polyreactivity”.

Turning to “QVQLVESGGGLVQAGGSLRLSCAASGIIFAYNAMGWYRQAPGKERELVATITDSGGSTSYADSVKGRFTISRDNAKNTVYLQMNSLKPEDTAVYYCAVLPVYWYWRNYVYLSGYDYWGQVTQVTVSS”, the “polyreactivity (PSR sort gate)” value is recorded as “low polyreactivity”.

For the sequence “QVQLVESGGGLVQAGGSLRLSCADSVSTFQPNAMGSYRQAPGKERELVAAISRGGSTKYAYSVKGRITISRDSAKNTVYLQMNSLKPEDTAVYYRAVVFYRHVGYSGYYYWGQGTQVTVSS”, the “polyreactivity (PSR sort gate)” value is recorded as “low polyreactivity”.

On to “QVQIVESGGGLVQAGGSLRLSCAASGRTLYGYAMGWYRQAPGKEREMVASIRSGGSTNYADSVKGRFTISRDNAKNTVYLQMNCLKPEDTAVYYCADDPYYSYGYYHAHGRDVGYWGQGTQVTVSS”, for which the “polyreactivity (PSR sort gate)” value is on record as “low polyreactivity”.

For the sequence “QVQLVESGGGLVQAGGSLRLSCAASGSIFVGYAMGWYRQAPGKERELVAAISKSGGSTYYADSVKGRYTISRDNAKNTVYLQMNSLKPEDTAVYYCAAYPVRLVYSQHRYQYDYWGQGTQVTVSS”, the “polyreactivity (PSR sort gate)” value is reported as “high polyreactivity”.

As for “QVQLVESGGGLVQAGGSLRLSCAASGSIFTYYAMGWYRQAPGKERELVAAISRRGTRTYYADSVKGRFTISRDNAKNTVYLQMNSLKPEDTAVYYCAAEYTETGTAKMEYWGQGTQVTVSS”, the “polyreactivity (PSR sort gate)” value is given as “high polyreactivity”.

For the sequence “QGQLVESGGGLVQAGGSLRLSCAASGLTFYYYARGWYRQAPGKERELVATISSRGGSTNYADSVKGRFTISRDNAKNTVYLQMNSLKPEDTAVYYCATDNSGYPRLNYWGQGTHVTVSS”, the “polyreactivity (PSR sort gate)” value was “high polyreactivity”.

In the case of “QVQLVESGGGLGQAGGRLRLSCAASGIYYNAMGWYRQAPGNERELVAAITTGDRTNYADSVKGRFTISRDNAKNTVYLQMNSLKPEDTAVYYCNAVVERLSSTARDFAYDYWGQGTQVTVSS”, the “polyreactivity (PSR sort gate)” value is given as “low polyreactivity”.

Take “QVQLVESGGGLVQAGGSLRLSCAASGITFYDNVMGWYRQAPGKERELVAAITSGGSTNYADSVKGRFTISRDNAKNTVYLQMNSLKPEDTAVYYCAAQTRVDYEFPYRYGYWGQGTQVTVSS”: the “polyreactivity (PSR sort gate)” value is listed as “low polyreactivity”.

For “QVQLVESGGGLVQAGGSLRLSCAASGSIFVSYAMGWYRQAPGKERELVAAITSAGTTYYADSVKGRFTISRDNAKNTVYLQMNSLKPEDTAVYYCNADTYGYYLWTGAVSAGDDYWGQGTQVTVSS”, the “polyreactivity (PSR sort gate)” value is “low polyreactivity”.

Take “QVQLVESGGGLVQAGGSLRLSCAASGLTFDYYAMGWYRQAPGKERELVAAISSSGGSTYYADSVKGRFTISRDNAKNTVYLQMNSLKPEDTAVYYCNAGGRRRIFAHSSTGDYWGQGTQVTVSS”: the “polyreactivity (PSR sort gate)” value is on record as “high polyreactivity”.

“QVQLEESGGGLVQAGGSLRLTCAGSGRIFGIYAMGWYRQAPGKERQLVAAIRDSGSRTYYADSVKGRFTISRDNAKNTVYLQMNRLTPEDTAVYYCAARTYTYPYFGGYQYTYNYWGQGTQVTVSS”: the “polyreactivity (PSR sort gate)” value was “low polyreactivity”.

Take “QVQLVESWGGLVQAGGSLRLRCAASGRIFVSNAMGWYRQAPGKERELVAAISKRGASTYYADSVKGRFTISRDNAKNTVYLQMNSLKPEDTAVYYCNVVTPGGPNYDYWGQGTQVTVSS”: the “polyreactivity (PSR sort gate)” value is “high polyreactivity”.

Take “QVQLVESGGGLVQAGGSLRLSCAASGRTFGPNVMGWYIQAPRKERELVAAITSGGTTYYADSVKGRFTISRDNANNTVYLLMNSLKPEDTAVYYCAKVLRGGRYDYWGQGTQVTVSS”: the “polyreactivity (PSR sort gate)” value is “low polyreactivity”.

With “QVQLVESGGGLVQAGGSLRLSCAASGSIFSVYAMGWYRQAPGKERELVAAISRSGGSTYYADSVKGRFTISRDNAKNTVYLQMNSLKPEDTAVYYCAARLAGRGSSSSRVVRTGGYWGQGTQVTVSS”, the “polyreactivity (PSR sort gate)” value is “high polyreactivity”.

Take “QVELVESGGGLVQAGGSLRLRCAASGLTFYYYPMGWYRQAPGKERELFAAIASVGSTYYADSVKGRFTISRDNATNTVYLQMNSLKPDDTAVYYCAAKSFWWHEDYWGQGTQVTVSS”: the “polyreactivity (PSR sort gate)” value is reported as “low polyreactivity”.

On to “QVQLVESGGGLVQAGGSLRLSCAASGFTFYKNAMGWYRQAPGKERELVASISSGGSTKYADSVKGRFTISRDNAKNTVYLQMNSLKPEDTAVYYCAADSGRNRMYYWGQGTQVTVSS”, for which the “polyreactivity (PSR sort gate)” value is listed as “high polyreactivity”.

Consider “QVQLVESGGGLVQAGGSLRLSCAASGSTFGWYTMGWYRQAPGKERELVAAISSGGRTYYADSVKGRFTISRDNEKNTVYLQMNILKPEDTAVYYCAAGIYSSRHSPYGYWGQGTQVTVSS”, for which the “polyreactivity (PSR sort gate)” value is recorded as “high polyreactivity”.

For “QVQLVESGGGLVQAGGSLRLSCADSGSIFGPYAMGWYRQAPGKEREFVAAISRSGTRTNYADSVKGRFTISRDNAKNTVYLQMNSLKPEDTAVYYCNARYVSASRNRGKSRYDYWGLGTQVTVSS”, the “polyreactivity (PSR sort gate)” value is reported as “high polyreactivity”.

As to “QVQLVESGGGLVQAGGSLRLSCAASGRISSYYVMGWYRQAPGKERELVAAITGGDSTNYADSVKGRFTISRDNAKNTVYLQMNSLKPEDTAVYYCNAYYWYLDDYWGQGSQVTVSS”, the “polyreactivity (PSR sort gate)” value was “high polyreactivity”.

Regarding “QVQLVESGGGLVQAGGSLRLSCAASGRIFGNYAMGWYRQAPGKERELVAAISGGGSTYYADSVKGRFTISRDNAKNTVYLQMNSLKPEDTAVYYCNAKTYYPPFGYWGQGTQVTVSS”, the “polyreactivity (PSR sort gate)” value is reported as “low polyreactivity”.

In the case of “QDQLVESGGGLVQAGGSLRLSCAASGSTFHPYAMGWYRQAPGKERELVAAITFSGGSTYADSVKGRFTISRDNAKNTVYLQMNSLKPEDNAVYYCAAEWWYWRGWRDYWGQGTQVTVSS”, the “polyreactivity (PSR sort gate)” value is recorded as “low polyreactivity”.
